The values that follow come from PMC3356575.

Holding throughout (format): biochemical, Bacteroides thetaiotaomicron
Holding throughout (conditions): 50 mM HEPES pH 7.0, 5 mM MgCl2, 37 °C

Substrate in data set [1]: Cc1ncc(COP(=O)(O)O)c(C=O)c1O
Put plainly: initial rates, phosphate release.

Substrate in data set [2]: Nc1ncnc2c1ncn2[C@@H]1O[C@H](COP(=O)(O)OP(=O)(O)O)[C@@H](O)[C@H]1O
Briefly: initial rates, phosphate release.

Substrate in data set [3]: O=P(O)(O)OCC(O)CO
Briefly: initial rates, phosphate release.

Substrate in data set [4]: O=P(O)(O)OC[C@@H](O)[C@@H](O)[C@H](O)[C@@H](O)CO
Put plainly: initial rates, phosphate release.

Substrate in data set [5]: O=P(O)(O)OC[C@H]1O[C@@](CO)(O[C@H]2O[C@H](CO)[C@@H](O)[C@H](O)[C@H]2O)[C@@H](O)[C@@H]1O
Put plainly: initial rates, phosphate release.

Substrate in data set [6]: O=P(O)(O)OC[C@H]1O[C@H](O[C@H]2O[C@H](CO)[C@@H](O)[C@H](O)[C@H]2O)[C@H](O)[C@@H](O)[C@@H]1O
Briefly: initial rates, phosphate release.

Substrate in the data set “purified protein”: O=[N+]([O-])c1ccc(OP(=O)(O)O)cc1
Briefly: purified protein.

What is called kcat is the maximal rate divided by the concentration of active sites. In general, kcat/Km refers to the second-order rate constant that governs catalysis at low substrate concentration.

B1: BT1666 (Bacteroides thetaiotaomicron VPI-5482) (protein)
chain: MIKVLLLDVDGTLLSFETHKVSQSSIDALKKVHDSGIKIVIATGRAASDLHEIDAVPYDGVIALNGAECVLRDGSVIRKVAIPAQDFRKSMELAREFDFAVALELNEGVFVNRLTPTVEQIAGIVEHPVPPVVDIEEMFERKECCQLCFYFDEEAEQKVMPLLSGLSATRWHPLFADVNVAGTSKATGLSLFADYYRVKVSEIMACGDGGNDIPMLKAAGIGVAMGNASEKVQSVADFVTDTVDNSGLYKALKHFGVI
Regarding B1, the Km in data set [1] is on record as 4.1 ± 0.5 mM; in data set [2], 1.0 (± 2) × 10^1 mM; in data set [3], 5.3 ± 0.7 mM; in data set [4], 6.5 ± 3 mM; in data set [5] it was 1.4 ± 0.3 mM; in data set [6], 2.2 ± 0.4 mM. The Km in “purified protein” amounted to 0.51 ± 0.1 mM. In addition, the kcat in data set [1] came to 0.29 ± 0.01 s⁻¹; in data set [2], 0.45 ± 0.06 s⁻¹; in data set [3], 0.42 ± 0.03 s⁻¹; in data set [4] it was 0.42 ± 0.06 s⁻¹; in data set [5], 0.11 ± 0.01 s⁻¹; in data set [6], 0.3 ± 0.03 s⁻¹. Besides, the turnover number (kcat) in the data set “purified protein” is 0.055 ± 0.007 s⁻¹. Besides, the kcat/Km in data set [1] was 70 M⁻¹ s⁻¹; in data set [2] it was 45 M⁻¹ s⁻¹; in data set [3], 79 M⁻¹ s⁻¹; in data set [4] it was 65 M⁻¹ s⁻¹; in data set [5], 79 M⁻¹ s⁻¹; in data set [6], 140 M⁻¹ s⁻¹. Besides, in “purified protein”, the kcat/Km is 110 M⁻¹ s⁻¹.
